Values of other authors as cited in article PMC7076691.

Biological target: Bfd (Pseudomonas aeruginosa) (UniProt Q9HY80)
Sequence of UniProt Q9HY80 (Q9HY80 whole entry): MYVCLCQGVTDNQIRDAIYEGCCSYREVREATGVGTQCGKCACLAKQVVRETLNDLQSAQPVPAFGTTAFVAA

For BfrB (from UniProt Q9HY79), the Kd is given as 3 µM.
